In paper PMC9482650, “Quantitative fragmentomics allow affinity mapping of interactomes” (Nature Communications, 2022):

Legend:
Assay in all cases: holdup assay
Set-up in all cases: key: below the threshold = too weak to quantify, mostly under pKd 3.1 to 4
Conditions in all cases: plain residues with an end cap or a label only (N-terminal biotin on a linker: ado-ado)
[1] = biological target: LNX1_1, Q8TBB1
[2] = biological target: T1, DVL3, Q92997
T1 sequence (Q92997 244-331, limits assumed, looked up): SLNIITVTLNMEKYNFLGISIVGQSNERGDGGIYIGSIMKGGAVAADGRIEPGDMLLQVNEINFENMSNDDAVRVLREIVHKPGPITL

[3] = biological target: DLG2_3, Q15700
[4] = biological target: T2, APBA3_1, O96018
T2 sequence (O96018 389-490, limits assumed, looked up): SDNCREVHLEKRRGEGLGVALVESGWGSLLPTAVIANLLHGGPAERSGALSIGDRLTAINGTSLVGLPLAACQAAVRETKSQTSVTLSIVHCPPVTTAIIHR

[5] = biological target: FRMPD4, Q14CM0
[6] = biological target: MAGI2_3, Q86UL8
[7] = biological target: NHERF4_4, Q86UT5
[8] = biological target: GRIP2_4, Q9C0E4
[9] = biological target: T3, SNTG2, Q9NY99
T3 sequence (Q9NY99 68-166, limits assumed, looked up): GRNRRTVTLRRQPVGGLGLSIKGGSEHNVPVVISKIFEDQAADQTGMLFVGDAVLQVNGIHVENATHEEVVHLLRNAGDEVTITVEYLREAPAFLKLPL

[10] = biological target: Inadl_6, Q8NI35
[11] = biological target: LNX1_2, Q8TBB1
[12] = biological target: T4, RAPGEF6, Q8TEU7
T4 sequence (Q8TEU7 525-625, limits assumed, looked up): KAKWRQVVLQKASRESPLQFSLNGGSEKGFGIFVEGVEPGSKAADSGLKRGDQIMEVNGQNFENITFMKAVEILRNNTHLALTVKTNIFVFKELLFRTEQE

[13] = biological target: FRMPD2_3, Q68DX3
[14] = biological target: FRMPD2_1, Q68DX3
[15] = biological target: T5, TIAM2, Q8IVF5
T5 sequence (Q8IVF5 885-986, limits assumed, looked up): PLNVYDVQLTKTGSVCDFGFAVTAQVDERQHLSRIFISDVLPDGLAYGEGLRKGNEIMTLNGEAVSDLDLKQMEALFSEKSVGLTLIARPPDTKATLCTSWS

[16] = biological target: T6, PDZD7_3, Q9H5P4
T6 sequence (Q9H5P4 857-944, limits assumed, looked up): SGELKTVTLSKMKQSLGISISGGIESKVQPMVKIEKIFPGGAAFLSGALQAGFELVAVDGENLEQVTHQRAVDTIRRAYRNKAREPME

[17] = biological target: MAGI2_6, Q86UL8
[18] = biological target: GRASP, Q7Z6J2
[19] = biological target: PDZRN4_1, Q6ZMN7
[20] = biological target: T7, PTPN13_1, Q12923
T7 sequence (Q12923 1088-1188, limits assumed, looked up): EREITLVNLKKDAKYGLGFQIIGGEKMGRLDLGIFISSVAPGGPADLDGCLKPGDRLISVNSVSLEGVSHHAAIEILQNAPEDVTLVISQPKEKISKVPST

[21] = biological target: T8, FRMPD1, Q5SYB0
T8 sequence (Q5SYB0 52-145, limits assumed, looked up): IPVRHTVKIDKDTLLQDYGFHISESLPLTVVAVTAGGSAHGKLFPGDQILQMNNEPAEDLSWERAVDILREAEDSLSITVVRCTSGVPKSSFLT

[22] = biological target: T9, RHPN1, Q8TCX5
T9 sequence (Q8TCX5 508-602, limits assumed, looked up): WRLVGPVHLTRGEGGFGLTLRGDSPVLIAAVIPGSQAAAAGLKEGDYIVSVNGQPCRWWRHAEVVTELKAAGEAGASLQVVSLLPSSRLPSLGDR

[23] = biological target: FRMPD2_2, Q68DX3
[24] = biological target: ARHGEF12, Q9NZN5-2
[25] = biological target: Inadl_8, Q8NI35
[26] = biological target: T10, SIPA1L2, Q9P2F8
T10 sequence (Q9P2F8 945-1036, limits assumed, looked up): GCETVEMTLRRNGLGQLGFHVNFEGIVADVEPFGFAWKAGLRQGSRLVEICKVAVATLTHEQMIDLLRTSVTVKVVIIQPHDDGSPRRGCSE

[27] = biological target: T11, HTRA4, P83105
T11 sequence (P83105 378-476, limits assumed, looked up): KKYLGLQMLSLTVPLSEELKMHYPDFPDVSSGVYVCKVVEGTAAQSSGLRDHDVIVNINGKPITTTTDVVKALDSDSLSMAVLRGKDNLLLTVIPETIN

Chain of FRMPD2_3, Q68DX3 (Q68DX3 1073-1166): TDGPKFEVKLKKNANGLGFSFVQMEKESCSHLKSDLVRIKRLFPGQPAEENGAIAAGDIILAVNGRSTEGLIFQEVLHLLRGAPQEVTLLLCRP
Chain of ARHGEF12, Q9NZN5-2 (Q9NZN5 other isoform, or with tags, fused parts or gaps): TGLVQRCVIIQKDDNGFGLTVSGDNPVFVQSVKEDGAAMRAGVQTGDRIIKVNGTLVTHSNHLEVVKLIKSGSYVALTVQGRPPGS
Chain of Inadl_6, Q8NI35 (Q8NI35 1058-1167): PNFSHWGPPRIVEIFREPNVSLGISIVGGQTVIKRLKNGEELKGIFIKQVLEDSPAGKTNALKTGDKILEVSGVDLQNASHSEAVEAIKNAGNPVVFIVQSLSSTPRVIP
Chain of FRMPD2_1, Q68DX3 (Q68DX3 770-861): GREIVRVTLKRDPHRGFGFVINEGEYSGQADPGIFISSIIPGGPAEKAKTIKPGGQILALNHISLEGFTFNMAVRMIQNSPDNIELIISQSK
Chain of GRASP, Q7Z6J2 (Q7Z6J2 96-193): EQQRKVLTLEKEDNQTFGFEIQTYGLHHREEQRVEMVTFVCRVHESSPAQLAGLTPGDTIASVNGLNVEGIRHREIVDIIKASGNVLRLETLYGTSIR
Chain of Inadl_8, Q8NI35 (Q8NI35 1425-1530): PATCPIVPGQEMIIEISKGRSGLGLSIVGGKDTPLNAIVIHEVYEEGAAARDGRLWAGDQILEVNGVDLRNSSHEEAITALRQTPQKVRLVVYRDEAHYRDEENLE
Chain of LNX1_1, Q8TBB1 (Q8TBB1 261-371): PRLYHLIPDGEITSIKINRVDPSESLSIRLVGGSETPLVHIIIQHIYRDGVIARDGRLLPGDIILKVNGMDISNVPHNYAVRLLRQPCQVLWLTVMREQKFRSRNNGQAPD
Chain of NHERF4_4, Q86UT5 (Q86UT5 464-550): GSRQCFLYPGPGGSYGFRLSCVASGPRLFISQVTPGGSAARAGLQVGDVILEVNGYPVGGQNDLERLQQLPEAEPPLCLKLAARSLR
Chain of FRMPD4, Q14CM0 (Q14CM0 67-160): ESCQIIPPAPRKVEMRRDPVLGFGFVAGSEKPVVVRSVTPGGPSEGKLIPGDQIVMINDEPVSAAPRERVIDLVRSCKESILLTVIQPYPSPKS
Chain of FRMPD2_2, Q68DX3 (Q68DX3 944-1038): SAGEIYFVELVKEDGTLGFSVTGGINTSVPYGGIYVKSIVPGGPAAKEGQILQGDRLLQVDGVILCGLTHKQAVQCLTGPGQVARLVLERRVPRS
Chain of GRIP2_4, Q9C0E4 (Q9C0E4 446-548): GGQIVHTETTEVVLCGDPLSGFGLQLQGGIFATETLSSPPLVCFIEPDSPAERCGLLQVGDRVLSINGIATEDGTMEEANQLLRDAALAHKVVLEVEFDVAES
Chain of MAGI2_3, Q86UL8 (Q86UL8 600-682): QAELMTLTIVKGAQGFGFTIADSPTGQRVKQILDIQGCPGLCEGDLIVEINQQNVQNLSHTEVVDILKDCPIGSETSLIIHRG
Chain of MAGI2_6, Q86UL8 (Q86UL8 1141-1229): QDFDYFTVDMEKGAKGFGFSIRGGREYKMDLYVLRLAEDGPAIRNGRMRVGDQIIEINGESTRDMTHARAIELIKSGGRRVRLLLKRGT
Chain of PDZRN4_1, Q6ZMN7 (Q6ZMN7 213-318): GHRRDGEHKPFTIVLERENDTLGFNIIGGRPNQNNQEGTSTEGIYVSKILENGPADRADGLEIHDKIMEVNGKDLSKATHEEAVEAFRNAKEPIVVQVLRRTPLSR
Chain of LNX1_2, Q8TBB1 (Q8TBB1 371-470): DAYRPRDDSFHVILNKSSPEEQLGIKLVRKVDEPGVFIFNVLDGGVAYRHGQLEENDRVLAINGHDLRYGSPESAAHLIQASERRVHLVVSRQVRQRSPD

B1: CLDN18, P56856 (peptide)
chain: QSYPSKHDYV
Q: With B1 as the binder, how does the pKd [1] read?
A: The pKd was 3.73.

Q: What about the pKd [2] of the same binder?
A: The pKd was 3.7.

Q: What about the pKd [3] of the same binder?
A: Its pKd is “below the threshold”.

Q: And the pKd [4]?
A: The pKd was “below the threshold”.

Q: What about the pKd [5] of the same binder?
A: Its pKd is 3.57.

Q: What about the pKd [6] of the same binder?
A: Its pKd is 3.62.

Q: And the pKd [7]?
A: The pKd was 4.03.

Q: And the pKd [8]?
A: Its pKd is “below the threshold”.

Q: And the pKd [9]?
A: The pKd was “below the threshold”.

Q: And the pKd [10]?
A: The pKd was “below the threshold”.

Q: What about the pKd [11] of the same binder?
A: Its pKd is 3.69.

Q: What about the pKd [12] of the same binder?
A: Its pKd is “below the threshold”.

Q: And the pKd [13]?
A: Its pKd is “below the threshold”.

Q: What about the pKd [14] of the same binder?
A: Its pKd is “below the threshold”.

Q: And the pKd [15]?
A: The pKd was “below the threshold”.

Q: And the pKd [16]?
A: The pKd was 4.08.

Q: And the pKd [17]?
A: Its pKd is 3.82.

Q: What about the pKd [18] of the same binder?
A: The pKd was 3.71.

Q: What about the pKd [19] of the same binder?
A: The pKd was “below the threshold”.

Q: And the pKd [20]?
A: The pKd was “below the threshold”.

Q: And the pKd [21]?
A: Its pKd is “below the threshold”.

Q: And the pKd [22]?
A: The pKd was “below the threshold”.

Q: And the pKd [23]?
A: Its pKd is “below the threshold”.

Q: What about the pKd [24] of the same binder?
A: Its pKd is “below the threshold”.

Q: What about the pKd [25] of the same binder?
A: The pKd was 4.22.

Q: And the pKd [26]?
A: Its pKd is 3.53.

Q: And the pKd [27]?
A: The pKd was 4.12.

B2: HTR2A, P28223 (peptide)
chain: DGVNEKVSCV
Q: What does the source list for B2?
A: pKd [1]: 4.48; pKd [2]: below the threshold; pKd [3]: 3.8; pKd [4]: below the threshold; pKd [5]: below the threshold; pKd [6]: 4.72; pKd [7]: below the threshold; pKd [8]: below the threshold; pKd [9]: 3.69; pKd [10]: 3.57; pKd [11]: below the threshold; pKd [12]: below the threshold; pKd [13]: 3.53; pKd [14]: below the threshold; pKd [15]: 4.01; pKd [16]: 4.72; pKd [17]: 4.47; pKd [18]: 4.21; pKd [19]: below the threshold; pKd [20]: below the threshold; pKd [21]: below the threshold; pKd [22]: 4.66; pKd [23]: 4.65; pKd [24]: 4.36; pKd [25]: 4.81; pKd [26]: below the threshold; pKd [27]: 3.71

B3: SRC, P12931 (peptide)
chain: EPQYQPGENL
Q: Which results are given for B3?
A: pKd [1]: below the threshold; pKd [2]: below the threshold; pKd [3]: below the threshold; pKd [4]: below the threshold; pKd [5]: 4.12; pKd [6]: below the threshold; pKd [7]: below the threshold; pKd [8]: below the threshold; pKd [9]: below the threshold; pKd [10]: below the threshold; pKd [11]: below the threshold; pKd [12]: below the threshold; pKd [13]: below the threshold; pKd [14]: below the threshold; pKd [15]: below the threshold; pKd [16]: below the threshold; pKd [17]: 3.84; pKd [18]: below the threshold; pKd [19]: 3.52; pKd [20]: below the threshold; pKd [21]: below the threshold; pKd [22]: below the threshold; pKd [23]: below the threshold; pKd [24]: below the threshold; pKd [25]: below the threshold; pKd [26]: below the threshold; pKd [27]: 3.9

B4: CCRL2, O00421 (peptide)
chain: REEPDHSTEV
Q: Which pKd [1] does the source give for B4 here?
A: The pKd was 4.09.

Q: What about the pKd [2] of the same binder?
A: Its pKd is 3.48.

Q: What about the pKd [3] of the same binder?
A: The pKd was “below the threshold”.

Q: And the pKd [4]?
A: The pKd was “below the threshold”.

Q: And the pKd [5]?
A: The pKd was 3.47.

Q: What about the pKd [6] of the same binder?
A: The pKd was “below the threshold”.

Q: What about the pKd [7] of the same binder?
A: The pKd was “below the threshold”.

Q: What about the pKd [8] of the same binder?
A: Its pKd is “below the threshold”.

Q: What about the pKd [9] of the same binder?
A: Its pKd is 3.73.

Q: What about the pKd [10] of the same binder?
A: Its pKd is “below the threshold”.

Q: And the pKd [11]?
A: Its pKd is 3.65.

Q: What about the pKd [12] of the same binder?
A: The pKd was “below the threshold”.

Q: And the pKd [13]?
A: The pKd was “below the threshold”.

Q: And the pKd [14]?
A: Its pKd is “below the threshold”.

Q: And the pKd [15]?
A: Its pKd is “below the threshold”.

Q: What about the pKd [16] of the same binder?
A: Its pKd is 4.31.

Q: What about the pKd [17] of the same binder?
A: The pKd was 4.71.

Q: And the pKd [18]?
A: Its pKd is 3.77.

Q: And the pKd [19]?
A: Its pKd is 4.17.

Q: And the pKd [20]?
A: Its pKd is “below the threshold”.

Q: And the pKd [21]?
A: The pKd was “below the threshold”.

Q: What about the pKd [22] of the same binder?
A: Its pKd is 3.83.

Q: What about the pKd [23] of the same binder?
A: Its pKd is 4.16.

Q: And the pKd [24]?
A: Its pKd is 4.37.

Q: And the pKd [25]?
A: Its pKd is “below the threshold”.

Q: What about the pKd [26] of the same binder?
A: The pKd was “below the threshold”.

Q: And the pKd [27]?
A: The pKd was “below the threshold”.
